Test results published in patent US20180095066A1 (OXFORD NANOPORE TECHNOLOGIES, published 2018).
Positions count from the first letter of the chain named. Names may count otherwise.

B1: MspA-((Del-L74/G75/D118/L119)D56N/E59R/L88N/D90N/D91N/Q126R/D134R/E139K) monomer (other)
chain: GLDNELSLVDGQDRTLTVQQWDTFLNGVFPLDRNRLTREWFHSGRAKYIVAGPGANEFRGTLELGYQIGFPWSVGINFSYTTPNININNGDITAPPFGLNSVITPNLFPGVSISAGNGPGIREVATFSVRVSGAKGGVAVSNAHGTVTGAAGGVLLRPFARLIASTGDSVTTYGEPWNMN
notes: Pore-forming monomer; Seven copies in MspA 1 (7:1), eight in the homo-oligomer MspA 6; also called untagged monomer of MspA 1; monomer of MspA 6
B2: MspA-(G75S/G77S/L88N/D90N/D91N/D93N/D118R/Q126R/D134R/E139K) monomer (other)
chain: GLDNELSLVDGQDRTLTVQQWDTFLNGVFPLDRNRLTREWFHSGRAKYIVAGPGADEFEGTLELGYQIGFPWSLSVSINFSYTTPNININNGNITAPPFGLNSVITPNLFPGVSISARLGNGPGIREVATFSVRVSGAKGGVAVSNAHGTVTGAAGGVLLRPFARLIASTGDSVTTYGEPWNMN
notes: Made by coupled in vitro transcription and translation (35S-methionine) with rabbit red blood cell membranes; eight copies in the homo-oligomer; also called untagged monomer; untagged version
B3: MspA-((Del-L74/G75/D118/L119)D56N/E59R/L88N/D91N/Q126R/D134R/E139K/BasTL/H6) monomer (other)
chain: GLDNELSLVDGQDRTLTVQQWDTFLNGVFPLDRNRLTREWFHSGRAKYIVAGPGANEFRGTLELGYQIGFPWSVGINFSYTTPNINIDNGDITAPPFGLNSVITPNLFPGVSISAGNGPGIREVATFSVRVSGAKGGVAVSNAHGTVTGAAGGVLLRPFARLIASTGDSVTTYGEPWNMNDNQKALEEQMNSINSVNDKLNKGKGKLSLSMNGNQLKATSSNAGYGISYEDKNWGIFVNGEKVYTFNEKSTVGNISNDINKLNIKGPYIEIKKIHHHHHH
notes: also called tagged monomer of MspA 1
B4: MspA-((Del-L74/G75/D118/L119)D56N/E59R/L88N/D91N/N108P/Q126R/D134R/E139K/BasTL/H6) monomer (other)
chain: B3 chain with N106P
notes: One copy in MspA 2 (7:1); also called tagged monomer of MspA 2; monomer unit with the BasTL-H6 attached
B5: MspA-(G75S/G77S/L88N/D90N/D91N/D93N/D118R/Q126R/D134R/E139K/D10H6) monomer (other)
chain: GLDNELSLVDGQDRTLTVQQWDTFLNGVFPLDRNRLTREWFHSGRAKYIVAGPGADEFEGTLELGYQIGFPWSLSVSINFSYTTPNININNGNITAPPFGLNSVITPNLFPGVSISARLGNGPGIREVATFSVRVSGAKGGVAVSNAHGTVTGAAGGVLLRPFARLIASTGDSVTTYGEPWNMNDDDDDDDDDDHHHHHH
notes: also called D10H6 tagged monomer
B6: MspA-(G75S/G77S/L88N/D90N/D91N/D93N/D118R/Q126R/D134R/E139K/BasTL) monomer (other)
chain: GLDNELSLVDGQDRTLTVQQWDTFLNGVFPLDRNRLTREWFHSGRAKYIVAGPGADEFEGTLELGYQIGFPWSLSVSINFSYTTPNININNGNITAPPFGLNSVITPNLFPGVSISARLGNGPGIREVATFSVRVSGAKGGVAVSNAHGTVTGAAGGVLLRPFARLIASTGDSVTTYGEPWNMNDNQKALEEQMNSINSVNDKLNKGKGKLSLSMNGNQLKATSSNAGYGISYEDKNWGIFVNGEKVYTFNEKSTVGNISNDINKLNIKGPYIEIKKI
notes: also called monomer tagged with full length BasTL

Legend:
[1] = target: the molecule itself; assay: 10% TGX gel, coomassie; homo-octamer, broken into monomers at 100 C in 50% DMSO
[2] = target: the molecule itself; assay: IVTT with rRBCM, 7.5% Tris HCl gel, autoradiography
[3] = target: B1; assay: co-expression in E. coli, His column, gel filtration, gel; 7:1 hetero-oligomer
[4] = target: T1, MspA-((Del-L74/G75/D118/L119)D56N/E59R/L88N/D90N/D91N/N108P/Q126R/D134R/E139K) monomer (Mycobacterium smegmatis, UniProt A0QR29 28-211); assay: co-expression under 14 induction conditions, NiNTA batch purification, 10% TGX gel
T1 construct: Seven copies in each of the 7:1 pores MspA 2, MspA 3 and MspA 7; also called untagged monomer of MspA 2, MspA 3 and MspA 7
T1 chain: B1 chain with N106P

[5] = target: the molecule itself; assay: IVTT with rRBCM, 5% Tris HCl gel, autoradiography; homo-oligomerisation
[6] = target: B2; assay: IVTT of mixed DNA (2:1 untagged:tagged) with rRBCM, 7.5% Tris HCl gel, autoradiography

Binder: B1
- binding result [1]: binds

Binder: B2
- binding result [2]: binds

Binder: B3
- binding result [3]: binds

Binder: B4
- binding result [4]: binds

Binder: B5
- binding result [5]: no binding

Binder: B6
- binding result [6]: binds
